Data on one molecule can be found in patent US9249224B2 (RINAT NEUROSCIENCE CORP., priority 2011, dated 2016).

The assay addresses T1, human GHR (Homo sapiens, UniProt P10912, I544L).
T1 construct: expressed in transfected cells; host or cells: HEK293
T1 sequence (P10912 19-638 I544L): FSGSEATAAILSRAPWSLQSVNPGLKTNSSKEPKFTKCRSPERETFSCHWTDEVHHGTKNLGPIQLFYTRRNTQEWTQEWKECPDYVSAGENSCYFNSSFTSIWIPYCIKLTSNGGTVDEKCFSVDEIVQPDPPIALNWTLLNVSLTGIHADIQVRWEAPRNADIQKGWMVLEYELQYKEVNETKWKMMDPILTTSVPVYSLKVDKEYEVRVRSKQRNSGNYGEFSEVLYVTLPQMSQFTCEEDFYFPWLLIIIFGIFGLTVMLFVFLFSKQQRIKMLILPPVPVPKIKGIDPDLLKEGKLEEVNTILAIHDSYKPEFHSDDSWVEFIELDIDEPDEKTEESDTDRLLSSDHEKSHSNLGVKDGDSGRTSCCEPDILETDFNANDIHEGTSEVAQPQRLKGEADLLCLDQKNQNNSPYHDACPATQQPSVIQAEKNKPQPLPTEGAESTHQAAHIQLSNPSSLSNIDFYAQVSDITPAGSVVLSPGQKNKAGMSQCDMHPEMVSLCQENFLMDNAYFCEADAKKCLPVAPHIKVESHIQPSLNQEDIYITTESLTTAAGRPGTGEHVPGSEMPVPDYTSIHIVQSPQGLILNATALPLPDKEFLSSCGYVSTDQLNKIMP
Nature of the assay: STAT5 phosphorylation in vitro assay, human GHR-transfected HEK293 cells. The class given is cell-based. The following applies: for fluorescent signal ave (phospho-STAT5): Table 7, human GHR-transfected cells. How it is done:
This Example illustrates the effect of GHR antibodies in an in vitro STAT5 phosphorylation assay. In this Example, the ability of GHR antibodies to block GHR downstream signaling was tested in vitro using human GHR overexpressing cells and cyno GHR overexpressing cells. […]
Antibodies SS3 and SS1 (hIgG2Δa) were tested using a STAT5 phosphorylation assay. For the STAT5 assay, full-length human GHR overexpressing HEK293 cells or full-length cyno GHR-overexpressing HEK293 cells were cultured, counted by automated cell counter, and seeded in warm freestyle media in 12-well plates (5×10^5 cells/well in 1 ml media). Cells were allowed to settle for 3 hours at 37° C. then treated with 2.5, 5, 50, or 500 nM of SS1 or SS3 in media.
Millipore™ lysis buffer with 1× protease inhibitor cocktail and sodium orthovanadate was added to each pellet at a volume of 100 ul/pellet Cells were vortexed and incubated for 15 minutes at room temp with occasional vortexing, Millipore™ Assay buffer 2 with 1× protease inhibitor cocktail and 1 mM sodium orthovanadate was then added to the lysates at 200 ul/well.
25 ul/well of sample lysate was added to the wells and the beads and samples were incubated overnight at 4′C with shaking in the dark. […]
The plate was read using a Luminex 200 instrument and florescent signal emitted from the samples was measured.

B1: SS1: humanized GHR antagonist antibody; VL SEQ ID NO: 7, VH SEQ ID NO: 8; hIgG2Δa heavy chain SEQ ID NO: 134, light chain SEQ ID NO: 135 (antibody)
heavy: EVQLVESGGGLVKPGGSLRLSCAASGFTFSDAWMDWVRQAPGKGLEWVAEIRSKANYHATYYAESVKGRFTISRDDSKNTLYLQMNSLKTEDTAVYYCTLIRDYWGQGTLVTVSSASTKGPSVFPLAPCSRSTSESTAALGCLVKDYFPEPVTVSWNSGALTSGVHTFPAVLQSSGLYSLSSVVTVPSSNFGTQTYTCNVDHKPSNTKVDKTVERKCCVECPPCPAPPVAGPSVFLFPPKPKDTLMISRTPEVTCVVVDVSHEDPEVQFNWYVDGVEVHNAKTKPREEQFNSTFRVVSVLTVVHQDWLNGKEYKCKVSNKGLPSSIEKTISKTKGQPREPQVYTLPPSREEMTKNQVSLTCLVKGFYPSDIAVEWESNGQPENNYKTTPPMLDSDGSFFLYSKLTVDKSRWQQGNVFSCSVMHEALHNHYTQKSLSLSPGK
light: EIVLTQSPGTLSLSPGERATLSCTATSSVSSSYLNWYQQKPGQAPRLLIYSTSNLASGIPDRFSGSGSGTDFTLTISRLEPEDFAVYYCHQYHRSTPTFGGGTKVEIKRTVAAPSVFIFPPSDEQLKSGTASVVCLLNNFYPREAKVQWKVDNALQSGNSQESVTEQDSKDSTYSLSSTLTLSKADYEKHKVYACEVTHQGLSSPVTKSFNRGEC
modifications: Humanized and/or affinity matured antibody sequence
For the molecule B1, the “fluorescent signal ave (phospho-STAT5)” value by setting is: (2.5 nM antibody + 4.5 nM GH) 60; (5 nM antibody + 4.5 nM GH) 22; (50 nM antibody + 4.5 nM GH) 0; (500 nM antibody + 4.5 nM GH) 5. In addition, under “cells expressing human GHR, 4.5 nM GH”, the “effect on GH-stimulated STAT5 signaling” value was “blocked STAT5 signaling in a dose-dependent manner”.
